Legend:
[1] = target: endotoxin (endotoxin concentrate; δ-endotoxin of Bacillus thuringiensis)
[2] = target: endotoxin (endotoxin concentrate; δ-endotoxin of Bacillus thuringiensis); remark: listed apart in the source
[3] = target: endotoxin (endotoxin concentrate; δ-endotoxin of Bacillus thuringiensis); remark: listed apart in the source

Substance: recombinant Citrullus colocynthis dehydrin CcDHN
- RPW egg hatching rate, endotoxin solution with the LEA protein at 1:40, heat stress 42 °C, day 5 [1]: 15%
- RPW adult mortality rate, endotoxin solution with the LEA protein, 42 °C, 10 days [2]: 77.6%
- RPW larval mortality rate, endotoxin solution with the LEA protein, 42 °C, 10 days [3]: 89.7%

Substance: recombinant Phoenix dactylifera LEA2 protein PdLEA2.2
- RPW egg hatching rate, endotoxin solution with the LEA protein at 1:40, heat stress 42 °C, day 5 [1]: 11%
- RPW adult mortality rate, endotoxin solution with the LEA protein, 42 °C, 10 days [2]: 75%
- RPW larval mortality rate, endotoxin solution with the LEA protein, 42 °C, 10 days [3]: 84.7%

Substance: recombinant Phoenix dactylifera LEA2 protein PdLEA2.3
- RPW egg hatching rate, endotoxin solution with the LEA protein at 1:40, heat stress 42 °C, day 5 [1]: 15%
- RPW adult mortality rate, endotoxin solution with the LEA protein, 42 °C, 10 days [2]: 73.6%
- RPW larval mortality rate, endotoxin solution with the LEA protein, 42 °C, 10 days [3]: 83.3%

Substance: recombinant Phoenix dactylifera LEA2 protein PdLEA2.4
- RPW egg hatching rate, endotoxin solution with the LEA protein at 1:40, heat stress 42 °C, day 5 [1]: 11.3%
- RPW adult mortality rate, endotoxin solution with the LEA protein, 42 °C, 10 days [2]: 73.3%
- RPW larval mortality rate, endotoxin solution with the LEA protein, 42 °C, 10 days [3]: 83.6%

Substance: recombinant Phoenix dactylifera dehydrin PdDHN
- RPW egg hatching rate, endotoxin solution with the LEA protein at 1:40, heat stress 42 °C, day 5 [1]: 11.3%
- RPW adult mortality rate, endotoxin solution with the LEA protein, 42 °C, 10 days [2]: 75%
- RPW larval mortality rate, endotoxin solution with the LEA protein, 42 °C, 10 days [3]: 85.6%

Substance: recombinant Prosopis cineraria dehydrin PcDHN
- RPW egg hatching rate, endotoxin solution with the LEA protein at 1:40, heat stress 42 °C, day 5 [1]: 13.6%
- RPW adult mortality rate, endotoxin solution with the LEA protein, 42 °C, 10 days [2]: 76.3%
- RPW larval mortality rate, endotoxin solution with the LEA protein, 42 °C, 10 days [3]: 88%

Source: patent US12385050B1
